In data set [1] the test system is tm-PTPε (wild type, stably expressed in NIH/3T3 and Rat-1 cells).
In data set [2] the test system is tm-PTPε A24C mutant, V5-tagged.
The subject of data set [3] is tm-PTPε Q26C mutant, V5-tagged.
Data set [4] concerns the molecule itself. Briefly: V5 immunoblot, non-reducing conditions (figure legend; self-dimer). As for the experimental part:
Whole cell lysates were prepared from NIH/3T3 transiently transfected with vectors expressing either a V5-tagged wild-type PTPRε or PTPRε P20C, D21C, P22C, G23C, A24C, S25C, Q26C mutants, as well as from empty vector control cell lines. Cell lysis was carried out in the presence of 20 mM iodacetamide. Iodacetamide inhibits glutathione reductase, the enzyme responsible for disulfide bridge reduction in vivo, to minimize dimmer cleavage. All the constructs encode a V5-tagged protein. Samples were analyzed in reducing and non-reducing conditions and immunoblotted, for wild-type or tm-PTPε mutant protein expression by probing with a V5-specific antibody. All the proteins are expressed as monomers in reducing conditions (FIG. 20A). In non-reducing conditions, however, while wild-type tm-PTPε was unable to form a dimer (because it is lacking cysteines in its extracellular domain), all tm-PTPε mutants formed dimers (FIG. 20B).

The target of data set [5] is T1, SEMA4D-V5 (expressed from pDESTSEMA4D-V5) (UniProt Q92854 22-862, limits assumed).
T1 construct: Control membrane protein co-transfected in 293T cells
T1 sequence (looked up): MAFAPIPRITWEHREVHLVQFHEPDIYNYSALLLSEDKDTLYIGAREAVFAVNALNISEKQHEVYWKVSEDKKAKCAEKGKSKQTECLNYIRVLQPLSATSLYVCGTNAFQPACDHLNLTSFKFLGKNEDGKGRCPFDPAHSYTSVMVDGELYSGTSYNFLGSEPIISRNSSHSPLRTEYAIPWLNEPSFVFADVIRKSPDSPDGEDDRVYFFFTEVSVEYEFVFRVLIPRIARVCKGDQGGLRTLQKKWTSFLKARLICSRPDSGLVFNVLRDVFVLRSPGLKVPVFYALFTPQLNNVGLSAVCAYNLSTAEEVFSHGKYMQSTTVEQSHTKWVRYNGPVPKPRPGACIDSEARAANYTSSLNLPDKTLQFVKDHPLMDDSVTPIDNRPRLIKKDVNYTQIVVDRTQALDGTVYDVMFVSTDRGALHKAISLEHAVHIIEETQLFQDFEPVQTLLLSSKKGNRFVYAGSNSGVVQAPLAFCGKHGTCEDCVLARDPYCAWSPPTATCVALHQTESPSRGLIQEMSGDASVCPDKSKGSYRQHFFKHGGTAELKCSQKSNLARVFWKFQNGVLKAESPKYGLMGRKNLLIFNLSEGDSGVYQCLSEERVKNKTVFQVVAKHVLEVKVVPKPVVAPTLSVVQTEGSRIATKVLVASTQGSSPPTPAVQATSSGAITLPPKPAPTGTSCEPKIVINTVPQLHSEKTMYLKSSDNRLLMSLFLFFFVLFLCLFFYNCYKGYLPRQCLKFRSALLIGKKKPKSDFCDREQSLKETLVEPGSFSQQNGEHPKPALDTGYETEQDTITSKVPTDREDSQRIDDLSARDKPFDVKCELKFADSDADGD
The data set is described as follows: co-immunoprecipitation (anti-HA or anti-V5) and western blot from lysates of co-transfected 293T cells. The protocol: Cells were harvested 72-hours later by scraping in 1 ml PBS. The pellets were lyzed on ice for 60 mins. in 500 ul lysis buffer: 50 mM Tris-HCl; pH7.5, 150 mM NaCl, 1 mM EDTA, 1% NP40, 0.25% Deoxycholate, 50 mMNaF, 20 mM Na3OV4 and protease inhibitors. 1 mM PMSF (0.3M stock solution in DMSO) was added to the lysis buffer before use. DNA was sheared with a needle. Lysates were then spun down for 10 mins. at 14,000 rpm. 200 ul cell lysates were incubated, overnight at 4° C. with gentle rocking, with lug of either rabbit polyclonal antibody to HA or V5 epitope tag (abcam; ab9110-100 and ab9116-100, respectively).
The next morning, a suspension protein A/G (50:50) agarose beads was washed twice in PBS then in lysis buffer. The beads (50% slurry) were incubated on ice in the lysis buffer for one hour. 30 ul of the proteinA/G suspension were added to the lysates and the mixture incubated for 4 hours at 4° C. with gentle rocking. Beads were then washed 3 times with 1 ml lysis buffer. Beads were resuspended in 30 μl sample buffer.
After protein transfer to membrane blots. Membranes were blocked over-night in PBST-5% Milk. The next day blots of the immunoprecipitation with V5 antibody were incubated with HA hybridoma supernatant (dilution 1:1000) for 1 hour whereas blots of the immunoprecipitation with HA antibody were incubated with V5-HRP (dilution 1:5000)
In general terms: A western blot detects proteins with antibodies after separation by electrophoresis.

Where a chain is given by its changes, count along the chain named. Names may count otherwise.

For the molecule Src, the “Src-Y529 phosphorylation levels (immunoblot with a Src-Y529 phospho-specific antibody)” value in data set [1] is “tm-PTPε overexpression cause Src-Tyr-529 dephosphorylation in NIH/3T3 and Rat-1 cells”; in data set [2], “Both clones of tm-PTPε A24C mutant were unable to dephosphorylate Src-Y529”; in data set [3], “Like wild-type tm-PTPε, PTPRεQ26C mutant was able to dephosphorylate Src-Y529”.

B1: tm-PTPε P20C mutant, V5-tagged (receptor, not shown: small tags and cut ends)
chain: LRGNETTADSNETTTTSGPCDPGASQPLLAWLLLPLLLLLLVLLLAAYFFRFRKQRKAVVSTSDKKMPNGILEEQEQQRVMLLSRSPSGPKKYFPIPVEHLEEEIRIRSADDCKQFREEFNSLPSGHIQGTFELANKEENREKNRYPNILPNDHSRVILSQLDGIPCSDYINASYIDGYKEKNKFIAAQGPKQETVNDFWRMVWEQKSATIVMLTNLKERKEEKCHQYWPDQGCWTYGNIRVCVEDCVVLVDYTIRKFCIQPQLPDGCKAPRLVSQLHFTSWPDFGVPFTPIGMLKFLKKVKTLNPVHAGPIVVHCSAGVGRTGTFIVIDAMMAMMHAEQKVDVFEFVSRIRNQRPQMVQTDMQYTFIYQALLEYYLYGDTELDVSSLEKHLQTMHGTTTHFDKIGLEEEFRKLTNVRIMKENMRTGNLPANMKKARVIQIIPYDFNRVILSMKRGQEYTDYINASFIDGYRQKDYFIATQGPLAHTVEDFWRMIWEWKSHTIVMLTEVQEREQDKCYQYWPTEGSVTHGEITIEIKNDTLSEAISIRDFLVTLNQPQARQEEQVRVVRQFHFHGWPEIGIPAEGKGMIDLIAAVQKQQQQTGNHPITVHCSAGAGRTGTFIALSNILERVKAEGLLDVFQAVKSLRLQRPHMVQTLEQYEFCYKVVQDFIDIFSDYANFK
notes: Transiently expressed in NIH/3T3 cells; also called PTPRε P20C
In the case of B1, the binding result in data set [4] is “binds”.

B2: tm-PTPε S25C mutant, V5-tagged (receptor, not shown: small tags and cut ends)
chain: B1 chain with C20P, S25C
notes: Transiently expressed in NIH/3T3 cells; also called PTPRε S25C
Consider B2, for which the binding result in data set [4] is “binds”.

B3: tm-PTPε Q26C mutant, V5-tagged (receptor, not shown: small tags and cut ends)
chain: B1 chain with C20P, Q26C
notes: Transiently expressed in NIH/3T3 cells (dimer blot) and stably in Rat-1 clones #1 and #30 (Src-Y529 blot); also called PTPRε Q26C; PTPRεQ26C
Consider B3, for which the binding result in data set [4] is recorded as “binds”.

B4: HA-tm-PTPε (expressed from pDisplayHA tm-PTPε-FL#9) (receptor, not shown: small tags and cut ends)
chain: B1 chain with C20P
notes: Transiently expressed in 293T cells and tested from cell lysates; The tag is placed N-terminal on the strength of the name
For the molecule B4, the binding result in data set [5] is recorded as “no binding”.

B5: tm-PTPε P22C mutant, V5-tagged (receptor, not shown: small tags and cut ends)
chain: B1 chain with C20P, P22C
notes: Transiently expressed in NIH/3T3 cells; also called PTPRε P22C
For the molecule B5, in data set [4], the binding result was “binds”.

B6: tm-PTPε D21C mutant, V5-tagged (receptor, not shown: small tags and cut ends)
chain: B1 chain with C20P, D21C
notes: Transiently expressed in NIH/3T3 cells; also called PTPRε D21C
B6: the binding result in data set [4] is recorded as “binds”.

B7: tm-PTPε G23C mutant, V5-tagged (receptor, not shown: small tags and cut ends)
chain: B1 chain with C20P, G23C
notes: Transiently expressed in NIH/3T3 cells; also called PTPRε G23C
B7: the binding result in data set [4] is listed as “binds”.

B8: tm-PTPε A24C mutant, V5-tagged (receptor, not shown: small tags and cut ends)
chain: B1 chain with C20P, A24C
notes: Transiently expressed in NIH/3T3 cells (dimer blot) and stably in Rat-1 clones #8 and #26 (Src-Y529 blot); also called PTPRε A24C; PTPRε.A24C
For B8, the binding result in data set [4] was “binds”.
